Laboratory results taken from the DeepSol protein solubility set.

experiment: soluble on expression in E. coli; label from the status in PepcDB or PDB records

Sequence | soluble on expression in E. coli
MGSDKIHHHHHHMSSDIHLAFAHPSERSAATARPGALDRISLRDHIVEVEIGAFQQERGTTQRVCFNVVVEIAPLPADLDDDVDRILSYDKVTEAIAHELARERLALLETLAERVAERILWEPQAVRAFVRIEKLDRGPGKLGVEIVRSADQVSHEADEDVKPHPRLMFLSNAAIDSDNLTGWIDQMECRERPLILCVGAHDLALPQTGHKWTQRRIDLLAIEQNAWRLAARDSRCKVVETRTELDWAMKNGQICVWAPSKIVLDAVEGPSEPPSNAVALAAWFASTFEAEEMIVIGAELPENPGVPLRAHAEEQHTL | not soluble
MPIKSVAIIGAGIAGLTAALAFARHGIDCDIIEQTGELAEVGAGLQLSPNAARILATLGVLPDIEARWTEPVSVDLASGKSLTTLLSLPMGAVARSRWGAPYGVLHRSTLQSALLQAVTRNPLCRLHLGKRIENATADVIAATTFRDHDLIVGADGVWSAARFSVPAAPTATFSGNVAWRFTVAAEEVPSAFNKTTVTAYLGSRGHIVAYPLKEVGGFNIVAIALGADPGATWRAESSGRQKALLLEQFRDFSPDIVRLLDSSENPTFWPLYQAGPGRWHNGRDTVLIGDAAHAMMPFAAQGAAMAIEDAFELAGTMAGSNGEKPLPVPQALAAFEALRLPRIEKARKRASLNRFAYHARGPVRIARDLVFSTRPPEAFLKDFDWLYGYHARGLEHHHHHH | soluble
MVNIDKIIGINNLPLANGLGEYAKRMEAVLGKNILSLVMDKRYKDMDYAGRKIYGYYPPITNGYLLNVYLSRSILKKYYKGKFPHLLSPFFYLGSEYESKSIITIHDTYYKWEKNKMQRLSKKIVRKYRSFKNIISISEQTKNDLIADGYDADNISVIYNYIDPIFRKLESINKDEKTVLTVGDGIHKNNILVNKIVNGRYYHIHIGKEVRADENYSGISTEELVKLYNRASVLIRLSDYEGFGYPPLEALFCGTPAVVSDIAVFRELLGDSAVYVKKDEVSILDGIEYAIQNRKEMLNRFESKIKSRYTKERFISNMIKYYKDL | soluble
MGSDKIHHHHHHAQTPNTLTKKEKKAGWELLFNGKDFSGWRQCNGTAMPANWVIEDNAMKVFTGEGKKPGQGANGDILYQNKKFKNFELSVDWKASKMGNSGIFYYVREVPGKPIYYAAPEVQVLDNVDATDNKLANHLAGSLYDMLPADPKTVNPAGEWNTIVIRVKDGKVTHTQNGKKVVEYTLWSKEWDDLVANSKFKNFPGFTEGISKEGYIGLQDHGYPIWFRNIKIRELK | not soluble
MSLPRLDARLKLVAAEIRGKIHADIGSDHGHLLAALLSADRIERGIAVENKLQPYRNSSATLERLNAEVRLGEGMDVIEENEIDSLSICGMGGQSIVRILSEHPNRLPKQLVLQPNQAIASVRQWARDNGYWLTDEKCTGTKRRFEVLVFSRFGPPHDPVYQKLNEVGLDESMGLMFGPWFLLRKDERLLQRLAEEQRYLQSKQNLTQTSRARVETIRRLLSSDHFLSREGHHHHHH | soluble
MPDKKTLWMLNELEGFEKPKIKLEQYATSSELAVSMMEMIDETIGFEGKKLIDIGCGCGMLMTTAATMYELETVLGVDIDDEALKICSRNLETAEVQDRCELLQADILDPESDLPRGTFDVAVINPPFGTKNNAGIDMQFVQIGLQMVRPGGSVFSLHKSSTRDYILKNAKKWDGVGAECCAEMRWQLPATYKFHKQKAVDIAVDLIHFKKLDS | soluble
MGSSHHHHHHSSGLVPRGSHMVTGKAFPYVVVTGIAMTTALATDAETTWKLLLDRQSGIRTLDDPFVEEFDLPVRIGGHLLEEFDHQLTRIELRRMGYLQRMSTVLSRRLWENAGSPEVDTNRLMVSIGTGLGSAEELVFSYDDMRARGMKAVSPLTVQKYMPNGAAAAVGLERHAKAGVMTPVSACASGAEAIARAWQQIVLGEADAAICGGVETRIEAVPIAGFAQMRIVMSTNNDDPAGACRPFDRDRDGFVFGEGGALLLIETEEHAKARGANILARIMGASITSDGFHMVAPDPNGERAGHAITRAIQLAGLAPGDIDHVNAHATGTQVGDLAEGRAINNALGGNRPAVYAPKSALGHSVGAVGAVESILTVLALRDQVIPPTLNLVNLDPEIDLDVVAGEPRPGNYRYAINNSFGFGGHNVAIAFGRY | soluble
MGSDKIHHHHHHMKPIATPDPIIAQAVKLFAERGYAETNLPSIAKAANVAVGTIYRHFKGKEDILNTAFTDIMDYFHDSLADAANCNVSDPESTFSHLFDAAALTMQHYPTELHFIEQNVFNEALRPESRAARDRVTTLISNMLMEGQEHGVIVKADVRTQLAILYGSIVSMIDIVWVQQQLQGHVPDQDQLALELKNQIWNGLTCERSIFQ | not soluble
MNASLSSDIAPYIPTLIQQLPIIEEIKTHLPQVLPDYSADEIHATAIASVGMYLADIDYGIRQAIAPEVTPLELRQKLSAYKIELFKRIYNIQFLQPPSTPIGGLELMQQAFKTYKRLLTTLAKAYNLRLPKGILLEHHHHHH | not soluble
MSYYLVQSTDEDILKHAECGGAVTAFFKYLLDKKLVDGVLALKKGEDVYDGLPYLVNDSKELVETCGSLHCAPTMFGNMISKHLKDMNLAVSVKPCDAMAIVELEKRHQIDKDKLYTIGLNCGGTVPPQTAKKMIELFYDVDPEDVIKEEIDKGKFIIELKDGSEKSVKIDELEEEGYGRRTNCQRCELKVPRNSDLACGNWGTEKGWTFVEVGSEKGEELLKNAQKEGYINVKAPSEKALEIRGKIEKSMINLGKKFQKEQLDEKYPEPEKWDEYWSRCIKCYGCRDVCPICFCKECALGEDYLDKGTIPPDPIMFQGIRLSHMSFSCINCGQCEDVCPVEIPLAKIYHRAQLKIRETTGFVPGIDDSMPFLYKLEHHHHHH | not soluble
MQIEKLRGQGLDEFFQGILTLENLEECYAFFDDVCTVNEIQSMAQRFQVAKMLHDGKTYNVIESETGASTATISRVKRSLHYGNDMYDVVFSRMTKPE | not soluble
MHIDNVVFMKKVLDASAFINGYVPEGRENYTVRSVTEEIRDFRSMMILEDALREGRLKITEPDPESMKVVEDAISESGDIMRLSPTDMEVIGLAVSLRGKDDVTVITDDYTIQNTLKILGIGFRSVLTSGIRDTYSWRRVCTGCRRVYPLDYEFEECEICGSRIVRKRHRNLEHHHHHH | soluble
MSDEALTLLFSAVENGDQNCIDLLCNLALRNDDLGHRVEKFLFDLFSGKRTGSSDIDKKINQACLVLHQIANNDITKDNTEWKKLHAPSRLLYMAGSATTDLSKKIGIAHKIMGDQFAQTDQEQVGVENLWCGARMLSSDELAAATQGLVQESPLLSVNYPIGLIHPTTKENILSTQLLEKIAQSGLSHNEVFLVNTGDHWLLCLFYKLAEKIKCLIFNTYYDLNENTKQEIIEAAKIAGISESDEVNFIEMNLQNNVPNGCGLFCYHTIQLLSNAGQNDPATTLREFAENFLTLSVEEQALFNTQTRRQIYEYSLQ | not soluble
MGSDKIHHHHHHMADQKETIKPFKKIAIFDIFSGENSEIICSDKSKIAAQVNKWVNRAISNGADSCYVRLYEANKENIDTIIENLSYKILQIILPFSLNYKSSLVSAFHFREKDQIKMPEAKSNNVLFGKSCHSLKSIEEAEYEGLDYVFFSPIFATPTHPEAKGIGLDMLTQACKSTQMKVFALGGINENNYQKCLDAGASGIAAISMFKK | not soluble
SSSSVPNSDRKIVTGPAGYILEDVPHFSDDFPDHPTYPNPLQDNAAYSVVKQYFVDEDDTVPQKIVVHPDSPRGTHFRRAGPRQRVYFESDDVLACIVTCGGLCPGLNTVIREIVCGLSYMYGVKRILGIDGGYRGFYARNTIHLDLKTVNDIHRSGGTILGTSRGGHNTTKIVDSIQDRGINQVYIIGGDGSQKGAAAIFEEIRKRKLKVAVAGIPKTIDNDIPIIDRSFGFDTAVEEAQRAINAAHVEATSFENGIGLVKLMGRYSGFIAMHATLASRDVDCCLIPESPFFLEGSGGLFEFIDKRLKESGHMVIVIAEGAGQDLLSESMKESTTLKDASGNKLLQDIGLWISQRIKDHFAKKMTLTLKYIDPTYMIRAVPSNASDNVCCTLLAQSAVHGVMAGYNGFTVGLVNGRHTYIPFNRITEKQNKVVITDRMWARLLSSTNQPSFMKQADKIHSNQLVGEPGTMKW | soluble
